According to IntAct's records for PubMed 11134024:

B1: Numb-related protein 1 (Caenorhabditis elegans), Q9XTY6 (parent)
chain: MSASQGNVFTRGLSRISRRKKKTKSIQNSLVSEQQPSFDAAIVPMPIPNDKSSIFSKGMDRLRRSLRLPKKRRDRSHDRHLSPDVTGGSKTEQWQPDEGAVRTGTCCFNVKYLGSVEVYESRGMQVCEGALKSLKASRRKPVKAVLYVSGDGLRVVDQGNSRGLLVDQTIEKVSFCAPDRQTDKGFAYICRDGASRRWMCHGFLATKETGERLSHAVGCAFSICLEKKKRRDEETAQVNVQSAQESTSSTPPKDIFHPNWEDNTSEGTSTQNPSNSRSNLAYQSFRKHVSIEDRYLDPQSVIINEVPASNHMDEIRRISKPRPTGNPALFLRQGSLRAPPDMPSSSDQFKRNMSLRTVSNNPTERSPEKKSFGTQLYNEPIYEGDEDPLGLGITPPVVTKTSGSLSNNGLDGINLNWKSIPAPVHQMQQHNANGDFVAAWPQNTIEKPTVGPLDKLQKQFEDIKLISISSGENTPTTRSKADEWLDDVLRVSMSMSPTSPSSDPPSTSSYSVLPKSGPPPAHAPPPLPVRQAVSNGSPSIYQQQLQQANSTRNSPAGINWNSSPNPMKISQPPAKPVDPFDVQWSRLAVNNTH
partner: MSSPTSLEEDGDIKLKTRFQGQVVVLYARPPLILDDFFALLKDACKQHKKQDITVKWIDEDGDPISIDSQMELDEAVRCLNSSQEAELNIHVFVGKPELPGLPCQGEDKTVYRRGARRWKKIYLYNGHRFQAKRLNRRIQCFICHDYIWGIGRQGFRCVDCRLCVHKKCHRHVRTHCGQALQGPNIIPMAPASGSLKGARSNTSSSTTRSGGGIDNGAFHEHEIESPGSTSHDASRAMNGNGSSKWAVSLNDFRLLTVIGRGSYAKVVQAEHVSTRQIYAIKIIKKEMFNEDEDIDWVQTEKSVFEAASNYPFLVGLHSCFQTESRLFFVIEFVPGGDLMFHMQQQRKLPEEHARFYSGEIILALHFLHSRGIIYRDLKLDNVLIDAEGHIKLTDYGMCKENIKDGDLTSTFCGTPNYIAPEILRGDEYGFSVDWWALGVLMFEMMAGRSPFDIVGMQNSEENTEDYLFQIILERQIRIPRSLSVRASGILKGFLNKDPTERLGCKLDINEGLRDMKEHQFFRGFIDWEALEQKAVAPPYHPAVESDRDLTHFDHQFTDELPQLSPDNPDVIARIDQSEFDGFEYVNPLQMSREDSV

Variants of: B1
Conditions: with kpc3_caeel pkc-3, Q19266

Row | Variant | effect of a mutation on the interaction
1 | MSASQGNVFTRGLSRISRRKKKTKSIQNSLVSEQQPSFDAAIVPMPIPNDKSSIFSKGMDRLRRSLRLPKKRRDRSHDRHLSPDVTGGSKTEQWQPDEGAVRTGTCCFNVKYLGSVEVYESRGMQVCEGALKSLKASRRKPVKAVLYVSGDGLRVVDQGNSRGLLVDQTIEKVSFCAPDRQTDKGFAYICRDGASRRWMCHGFLATKETGERLSHAVGCALSICLEKKKRRDEETAQVNVQSAQESTSSTPPKDIFHPNWEDNTSEGTSTQNPSNSRSNLAYQSFRKHVSIEDRYLDPQSVIINEVPASNHMDEIRRISKPRPTGNPALFLRQGSLRAPPDMPSSSDQFKRNMSLRTVSNNPTERSPEKKSFGTQLYNEPIYEGDEDPLGLGITPPVVTKTSGSLSNNGLDGINLNWKSIPAPVHQMQQHNANGDFVAAWPQNTIEKPTVGPLDKLQKQFEDIKLISISSGENTPTTRSKADEWLDDVLRVSMSMSPTSPSSDPPSTSSYSVLPKSGPPPAHAPPPLPVRQAVSNGSPSIYQQQLQQANSTRNSPAGINWNSSPNPMKISQPPAKPVDPFDVQWSRLAVNNTH [F221L] | decreasing interaction

Variants of: B1
Conditions: with kpc3_caeel pkc-3, Q19266
Remark: another data set of the same source

Row | Variant | effect of a mutation on the interaction
2 | MSASQGNVFTRGLSRISRRKKKTKSIQNSLVSEQQPSFDAAIVPMPIPNDKSSIFSKGMDRLRRSLRLPKKRRDRSHDRHLSPDVTGGSKTEQWQPDEGAVRTGTCCFNVKYLGSVEVYESRGMQVCEGALKSLKASRRKPVKAVLYVSGDGLRVVDQGNSRGLLVDQTIEKVSFCAPDRQTDKGFAYICRDGASRRWMCHGFLATKETGERLSHAVGCALSICLEKKKRRDEETAQVNVQSAQESTSSTPPKDIFHPNWEDNTSEGTSTQNPSNSRSNLAYQSFRKHVSIEDRYLDPQSVIINEVPASNHMDEIRRISKPRPTGNPALFLRQGSLRAPPDMPSSSDQFKRNMSLRTVSNNPTERSPEKKSFGTQLYNEPIYEGDEDPLGLGITPPVVTKTSGSLSNNGLDGINLNWKSIPAPVHQMQQHNANGDFVAAWPQNTIEKPTVGPLDKLQKQFEDIKLISISSGENTPTTRSKADEWLDDVLRVSMSMSPTSPSSDPPSTSSYSVLPKSGPPPAHAPPPLPVRQAVSNGSPSIYQQQLQQANSTRNSPAGINWNSSPNPMKISQPPAKPVDPFDVQWSRLAVNNTH [F221L] | decreasing interaction
3 | MSASQGNVFTRGLSRISRRKKKTKSIQNSLVSEQQPSFDAAIVPMPIPNDKSSIFSKGMDRLRRSLRLPKKRRDRSHDRHLSPDVTGGSKTEQWQPDEGAVRTGTCCFNVKYLGSVEVYESRGMQVCEGALKSLKASRRKPVKAVLYVSGDGLRVVDQGNSRGLLVDQTIEKVSLCAPDRQTDKGFAYICRDGASRRWMCHGFLATKETGERLSHAVGCAFSICLEKKKRRDEETAQVNVQSAQESTSSTPPKDIFHPNWEDNTSEGTSTQNPSNSRSNLAYQSFRKHVSIEDRYLDPQSVIINEVPASNHMDEIRRISKPRPTGNPALFLRQGSLRAPPDMPSSSDQFKRNMSLRTVSNNPTERSPEKKSFGTQLYNEPIYEGDEDPLGLGITPPVVTKTSGSLSNNGLDGINLNWKSIPAPVHQMQQHNANGDFVAAWPQNTIEKPTVGPLDKLQKQFEDIKLISISSGENTPTTRSKADEWLDDVLRVSMSMSPTSPSSDPPSTSSYSVLPKSGPPPAHAPPPLPVRQAVSNGSPSIYQQQLQQANSTRNSPAGINWNSSPNPMKISQPPAKPVDPFDVQWSRLAVNNTH [F175L] | decreasing interaction
